T1: mouse Plexin-B1 (20–535)-6xHis (mouse, UniProt Q8CJH3 20-535)
T1 chain: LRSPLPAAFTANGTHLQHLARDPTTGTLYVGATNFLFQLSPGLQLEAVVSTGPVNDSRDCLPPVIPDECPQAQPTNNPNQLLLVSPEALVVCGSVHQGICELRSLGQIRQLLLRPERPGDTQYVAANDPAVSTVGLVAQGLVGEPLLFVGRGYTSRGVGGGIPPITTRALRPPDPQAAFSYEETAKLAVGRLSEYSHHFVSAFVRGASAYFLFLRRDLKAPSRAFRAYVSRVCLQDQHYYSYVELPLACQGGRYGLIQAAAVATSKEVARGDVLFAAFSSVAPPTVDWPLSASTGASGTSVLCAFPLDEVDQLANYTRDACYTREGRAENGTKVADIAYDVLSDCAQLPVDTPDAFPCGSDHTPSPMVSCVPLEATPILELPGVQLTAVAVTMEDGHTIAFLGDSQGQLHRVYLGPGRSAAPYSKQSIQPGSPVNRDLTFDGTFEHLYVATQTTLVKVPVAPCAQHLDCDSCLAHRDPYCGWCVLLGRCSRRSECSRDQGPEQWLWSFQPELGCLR


Target: T1, mouse Plexin-B1 (20–535)-6xHis
Assay: BLI

koff [s⁻¹] | Binder
0.002 | VHH15-Fc (Fc fusion) QVQLQESGGGLVQPGGSLRLSCAASGFRLDYYAIGWFRQAPGKEREGVLCISSSGGSINYADSVKGRFTISRDNAKNTVYLQMNSLKPEDTAVYYCGASSYNTQRAECYGMDYWGKGTQVTVSA
1.66e-05 | VHH14-Fc (Fc fusion) QVQLQESGGGLVQAGGSLRLSCAASGFTLGYYAIGWFRQAPGKEREEVSCINASGGSTFYEDSVKGRFTISRDNAKNTVFLQMNRLKPEDTAVYYCAAACEVVAVGYWGQGTQVTVSA

— article PMC10206189 (2023)
